Results taken from paper PMC2924587 (2010).

Biological target: Protein phosphatase 1 alpha 7-330 (Homo sapiens, UniProt P62136)
Assay: ITC

Sequence of Protein phosphatase 1 alpha 7-330 (P62136 7-330): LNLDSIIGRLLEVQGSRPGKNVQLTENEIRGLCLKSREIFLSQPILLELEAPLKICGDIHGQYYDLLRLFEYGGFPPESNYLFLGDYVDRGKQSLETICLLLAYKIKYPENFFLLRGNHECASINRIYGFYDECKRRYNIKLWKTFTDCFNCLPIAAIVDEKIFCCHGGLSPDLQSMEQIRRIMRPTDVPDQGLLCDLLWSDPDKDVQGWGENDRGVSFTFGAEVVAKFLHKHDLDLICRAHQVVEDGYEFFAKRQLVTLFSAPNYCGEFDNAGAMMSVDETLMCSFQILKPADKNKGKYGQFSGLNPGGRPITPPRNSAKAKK

Kd: 8.7 nM
B1: Spinophilin 417-583 (protein)
chain: not shown
